Test results: the supplement of paper PMC7125110
± gives the standard error. For some of these results: This sample holds only a part of the variants without activity.

B1: glmS ribozyme (parent)
chain: AUAAAAGCGCCAGAACUACAGAAAUGUAGUUGACGAGGAGGAGGUUUAUCGAAUUUUCGGCGGAUGCCUCCAAA

What was measured:
Conditions in all cases: with glucosamine-6-phosphate
glucosamine-6-phosphate [1] = variants of: B1; assay: kcat; higher = faster cleavage; RNA array
In short: (§1)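 Glucosamine-6-phosphate in HEPES/KCl/Mg(OAc)2 buffer, at 40 μM to 10 mM, was flowed over barcoded ribozyme variants transcribed in situ by E. coli RNA polymerase on sequenced MiSeq chips. Tracking was through a hybridised Cy3 probe at 37 °C. kobs, kcat and KM came from exponential decay fits and weighted Michaelis–Menten fits of normalised per-tile medians.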

glucosamine-6-phosphate [2] = variants of: B1; assay: KM; higher = weaker cofactor use; RNA array
In short: as §1

glucosamine-6-phosphate [3] = variants of: B1; assay: self-cleavage kobs at 40 uM GlcN6P; higher = faster cleavage; RNA array
In short: as §1

glucosamine-6-phosphate [4] = variants of: B1; assay: self-cleavage kobs at 160 uM GlcN6P; higher = faster cleavage; RNA array
In short: as §1

glucosamine-6-phosphate [5] = variants of: B1; assay: self-cleavage kobs at 640 uM GlcN6P; higher = faster cleavage; RNA array
In short: as §1

glucosamine-6-phosphate [6] = variants of: B1; assay: self-cleavage kobs at 2500 uM GlcN6P; higher = faster cleavage; RNA array
In short: as §1

glucosamine-6-phosphate [7] = variants of: B1; assay: self-cleavage kobs at 10000 uM GlcN6P; higher = faster cleavage; RNA array
In short: as §1

Variant | kcat (glucosamine-6-phosphate [1]) [s⁻¹] | KM (glucosamine-6-phosphate [2]) [µM] | self-cleavage kobs at 40 uM GlcN6P (glucosamine-6-phosphate [3]) [s⁻¹] | self-cleavage kobs at 160 uM GlcN6P (glucosamine-6-phosphate [4]) [s⁻¹] | self-cleavage kobs at 640 uM GlcN6P (glucosamine-6-phosphate [5]) [s⁻¹] | self-cleavage kobs at 2500 uM GlcN6P (glucosamine-6-phosphate [6]) [s⁻¹] | self-cleavage kobs at 10000 uM GlcN6P (glucosamine-6-phosphate [7]) [s⁻¹]
G37A U55G | 0.0025 ± 0.0004 | 2980 ± 830 | 2.68e-05 ± 1.3e-05 | 0.000204 ± 6.7e-05 | 0.000401 ± 9.1e-05 | 0.00122 ± 0.0002 | 0.00188 ± 0.00028
G37A U55C | 0.000802 ± 5.9e-05 | 2180 ± 260 |  | 5.1e-05 ± 1.1e-05 | 0.000189 ± 2e-05 | 0.000404 ± 5.6e-05 | 0.000676 ± 8.7e-05
G40A U46C | 0.00192 ± 0.00051 | 1280 ± 450 | 7.21e-05 ± 1.4e-05 | 0.000173 ± 3.9e-05 | 0.000699 ± 0.00012 | 0.00107 ± 0.00036 | 0.00192 ± 0.00054
G40C C67U | 0.000108 ± 1.3e-05 |  |  |  |  | 7.55e-05 ± 1.5e-05 | 8.8e-05 ± 7e-06
G40C C67A | 0.000136 ± 2.4e-05 |  |  |  | 6.63e-05 ± 1.2e-05 | 0.000181 ± 2.9e-05 | 0.000119 ± 1.3e-05
G37A G41U | 0.000119 ± 2.1e-05 |  |  |  | 4.8e-05 ± 1.3e-05 | 0.000126 ± 1.7e-05 | 0.0001 ± 1.2e-05
G37A C50A | 1.38e-05 ± 4.6e-06 |  |  |  |  |  | 
G37C U54G U55G | 5.85e-05 ± 2.8e-06 | 2190 ± 470 |  |  |  |  | 4.79e-05 ± 1.5e-05
G37C U47C | < 1e-05 |  | < 1e-05 | < 1e-05 |  |  | 
G37U U47A | < 1e-05 |  |  |  | < 1e-05 |  | 
G37U U47G | < 1e-05 |  | < 1e-05 |  | < 1e-05 |  | 
G40A G43C U47C C50G U65C | 2.52e-05 ± 1.1e-05 |  |  |  |  |  | 
G40A | 0.0122 ± 0.00085 | 1310 ± 110 | 0.000363 ± 7.8e-06 | 0.0012 ± 0.00012 | 0.00372 ± 0.0003 | 0.00876 ± 0.0005 | 0.0103 ± 0.00063
G38A U47G C71G | 1.15e-05 ± 1.8e-06 |  |  |  |  |  | 
A39G U65A | 0.0108 ± 0.0047 |  | 0.000266 ± 6.6e-05 |  | 0.00201 ± 0.00056 | 0.00741 ± 0.0031 | 0.00966 ± 0.0034
A39C C67A | 0.00061 ± 0.00015 | 1790 ± 670 | 2.37e-05 ± 5.8e-06 | 5.89e-05 ± 7.1e-06 | 0.000144 ± 1.2e-05 | 0.000714 ± 0.00014 | 0.000522 ± 5e-05
A36U C67G | 1.75e-05 ± 5.9e-06 |  |  |  |  |  | 
A39U U45C | 0.00276 ± 0.0012 |  |  | 8.23e-05 ± 1.6e-05 | 0.000268 ± 4.7e-05 | 0.000599 ± 0.00011 | 0.002 ± 0.00034
G38A C58G C70U | 1.98e-05 ± 8.1e-06 |  |  |  |  |  | 
A39U G62A | < 1e-05 |  | < 1e-05 | < 1e-05 | < 1e-05 |  | 

Variant | kcat (glucosamine-6-phosphate [1]) [s⁻¹] | KM (glucosamine-6-phosphate [2]) [µM] | self-cleavage kobs at 40 uM GlcN6P (glucosamine-6-phosphate [3]) [s⁻¹] | self-cleavage kobs at 160 uM GlcN6P (glucosamine-6-phosphate [4]) [s⁻¹] | self-cleavage kobs at 640 uM GlcN6P (glucosamine-6-phosphate [5]) [s⁻¹] | self-cleavage kobs at 2500 uM GlcN6P (glucosamine-6-phosphate [6]) [s⁻¹] | self-cleavage kobs at 10000 uM GlcN6P (glucosamine-6-phosphate [7]) [s⁻¹]
G37C A64C | 1.32e-05 ± 3.3e-06 |  |  |  |  |  | < 1e-05
G37C U49G | < 1e-05 |  |  |  |  |  | 
A39G C50U | 0.000157 ± 2.6e-05 | 3430 ± 1200 |  |  |  | 6.91e-05 ± 1.4e-05 | 0.000115 ± 2.5e-05
A36C A52U U56G U65A U69A | 2.16e-05 ± 2.7e-06 |  |  |  |  |  | 
G37U C67U | 1.39e-05 ± 4.5e-06 |  | < 1e-05 |  |  |  | 
G37U C67G | < 1e-05 |  |  |  |  |  | < 1e-05
A36C C68A | 1.33e-05 ± 2.1e-06 |  |  |  |  |  | 
G37A U45A | 0.00537 ± 0.00043 | 1760 ± 210 | 0.000126 ± 1.4e-05 | 0.000452 ± 8.9e-05 | 0.00131 ± 0.00021 | 0.0027 ± 0.0006 | 0.00477 ± 0.00049
G37A G59A | < 1e-05 |  | < 1e-05 |  |  |  | 
G37A A39G | 0.00599 ± 0.00079 | 3900 ± 740 | 6.85e-05 ± 7.9e-06 | 0.000243 ± 4.5e-05 | 0.00068 ± 0.00012 | 0.00235 ± 0.0003 | 0.00437 ± 0.00039
G37A A39C | 0.00108 ± 0.0001 | 4350 ± 560 |  | 3.21e-05 ± 1.1e-05 | 0.000144 ± 1.8e-05 | 0.000399 ± 6e-05 | 0.000742 ± 0.00013
A39U C50U | 4.51e-05 ± 4.1e-06 | 1250 ± 570 |  |  |  | 3.23e-05 ± 9.4e-06 | 3.95e-05 ± 7.1e-06
A39U C50A | 1.72e-05 ± 1.5e-06 |  |  | < 1e-05 |  |  | 
G37U C71G | 1.72e-05 ± 4.2e-06 |  |  |  |  |  | 
A39G U45C | 0.0102 ± 0.0019 | 3810 ± 980 | 0.00012 ± 2.4e-05 |  | 0.00126 ± 0.00034 | 0.00381 ± 0.0011 | 0.00774 ± 0.0016
A39U G44U | 0.00106 ± 0.00049 |  | 8.33e-05 ± 6.8e-06 | 0.000143 ± 1.3e-05 | 0.000437 ± 3e-05 | 0.000955 ± 9.3e-05 | 
G38A C50G | 3.77e-05 ± 1.1e-05 |  |  | 6.25e-05 ± 1.5e-05 | 3.79e-05 ± 1.3e-05 | 3.46e-05 ± 1.4e-05 | 
G37C C67U | 2.86e-05 ± 3.3e-06 |  |  |  |  | 2.85e-05 ± 1e-05 | 
A39G A42C | 3.82e-05 ± 3.7e-06 |  |  |  |  | 3e-05 ± 1.4e-05 | 3.4e-05 ± 8e-06
A39U U69A | 0.000214 ± 3.6e-05 | 2430 ± 770 |  |  | 5.02e-05 ± 1.2e-05 | 0.000105 ± 1.3e-05 | 0.000197 ± 5.6e-05
